Measured values published in article PMC7671478, “Structure of the helicase core of Werner helicase, a key target in microsatellite instability cancers”.

Target: WRN helicase core (531-950), lacking the WH domain (Homo sapiens, UniProt Q14191 531-950)
Assay: HDX-MS; protein:ssDNA 1:2.5, no nucleotide analogue added; protection of D2 hairpin/motif IV peptide only after 4 h labelling; HDX-MS: WRN stock 16.66 uM in 15 mM Hepes, 150 mM NaCl, pH 7.3; 2 min equilibration with ligand, then 16-fold dilution into deuterated buffer, room temperature, 10 s to 4 h
Details: protein: recombinant; tags: N-terminal His-Zbasic tag, TEV-cleaved; single strand

WRN helicase core (531-950), lacking the WH domain, sequence (Q14191 531-950): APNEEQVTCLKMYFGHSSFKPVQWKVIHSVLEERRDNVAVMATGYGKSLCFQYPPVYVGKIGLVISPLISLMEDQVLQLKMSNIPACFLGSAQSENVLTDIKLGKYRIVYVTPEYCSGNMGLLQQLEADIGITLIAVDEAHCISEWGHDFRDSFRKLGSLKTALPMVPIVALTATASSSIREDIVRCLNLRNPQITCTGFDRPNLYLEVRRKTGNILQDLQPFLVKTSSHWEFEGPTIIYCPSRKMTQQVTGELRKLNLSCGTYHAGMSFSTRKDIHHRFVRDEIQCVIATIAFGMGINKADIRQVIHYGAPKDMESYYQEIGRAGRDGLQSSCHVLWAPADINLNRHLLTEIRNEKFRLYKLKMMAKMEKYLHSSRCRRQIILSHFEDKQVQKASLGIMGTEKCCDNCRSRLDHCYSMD

**Q.** Does CCAGGTCGATAGGTTCGAATTGGTT (ssDNA) [25-nt ssDNA] bind?
**A.** binds
